# Test results reported in publication PMC7737156, “A 3.4-Å cryo-electron microscopy structure of the human coronavirus spike trimer computationally derived from vitrified NL63 virus particles” (QRB Discovery, 2020).
# B1: HCoV-NL63 coronavirus spike glycoprotein (natural protein)
# chain: CNSNANLSMLQLGVPDNSSTIVTGLLPTHWFCANQSTSVYSANGFFYIDVGNHRSAFALHTGYYDANQYYIYVTNEIGLNASVTLKICKFSRNTTFDFLSNASSSFDCIVNLLFTEQLGAPLGITISGETVRLHLYNVTRTFYVPAAYKLTKLSVKCYFNYSCVFSVVNATVTVNVTTHNGRVVNYTVCDDCNGYTDNIFSVQQDGRIPNGFPFNNWFLLTNGSTLVDGVSRLYQPLRLTCLWPVPGLKSSTGFVYFNATGSDVNCNGYQHNSVVDVMRYNLNFSANSLDNLKSGVIVFKTLQYDVLFYCSNSSSGVLDTTIPFGPSSQPYYCFINSTINTTHVSTFVGILPPTVREIVVARTGQFYINGFKYFDLGFIEAVNFNVTTASATDFWTVAFATFVDVLVNVSATNIQNLLYCDSPFEKLQCEHLQFGLQDGFYSANFLDDNVLPETYVALPIYYQHTDINFTATASFGGSCYVCKPHQVNISLNGNTSVCVRTSHFSIRYIYNRVKSGSPGDSSWHIYLKSGTCPFSFSKLNNFQKFKTICFSTVEVPGSCNFPLEATWHYTSYTIVGALYVTWSEGNSITGVPYPVSGIREFSNLVLNNCTKYNIYDYVGTGIIRSSNQSLAGGITYVSNSGNLLGFKNVSTGNIFIVTPCNQPDQVAVYQQSIIGAMTAVNESRYGLQNLLQLPNFYYVSNGGNNCTTAVMTYSNFGICADGSLIPVRPRNSSDNGISAIITANLSIPSNWTTSVQVEYLQITSTPIVVDCATYVCNGNPRCKNLLKQYTSACKTIEDALRLSAHLETNDVSSMLTFDSNAFSLANVTSFGDYNLSSVLPQRNIRSSRIAGRSALEDLLFSKVVTSGLGTVDVDYKSCTKGLSIADLACAQYYNGIMVLPGVADAERMAMYTGSLIGGMVLGGLTSAAAIPFSLALQARLNYVALQTDVLQENQKILAASFNKAINNIVASFSSVNDAITQTAEAIHTVTIALNKIQDVVNQQGSALNHLTSQLRHNFQAISNSIQAIYDRLDSIQADQQVDRLITGRLAALNAFVSQVLNKYTEVRGSRRLAQQKINECVKSQSNRYGFCGNGTHIFSIVNSAPDGLLFLHTVLLPTDYKNVKAWSGICVDGIYGYVLRQPNLVLYSDNGVFRVTSRVMFQPRLPVLSDFVQIYNCNVTFVNISRVELHTVIPDYVDVNKTLQEFAQNLPKYVKPNFDLTPFNLTYLNLSSELKQLEAKTASLFQTTVELQGLIDQINSTYVDLKLLNRFENYIKWPWWVWLIISVVFVVLLSLLVFCCLSTGCCGCCNCLTSSMRGCCDCGSTKLPYYEFEKVHVQ
# modifications: glycosylated; N-linked glycan density at Asn24 and Asn203 and O-linked glycan density at Ser496 newly seen here, besides the glycan sites seen before in EMD-8331
# notes: Spike glycoprotein of human coronavirus NL63, membrane-anchored on native virions, pre-fusion state; model built from PDB 5SZS with residues 883-889 and 993-1000 added; Native spike on the virion, no stabilising mutations and no tags; the cited ectodomain structure PDB 5SZS is another construct (purified ectodomain made in insect cells); also called S trimer; HCoV-NL63 spike (S) trimer; source: …
# Molecular target: the molecule itself
# Assay: cryo-EM structure; single-particle cryo-EM of purified, vitrified HCoV-NL63 virions without chemical fixative; spikes extracted computationally from the micrographs; refined with C3 symmetry (3.4 Å) and without (3.7 Å); virus resuspension buffer 20 mM Tris pH 8.0, 120 mM NaCl, 1 mM EDTA
protein,measurement,value
B1,stoichiometry N,3
